Assay results as given in patent publication US9539338B2, “Polymer-based protein engineering methods to rationally tune enzyme activity, pH-dependence and stability” (Carnegie Mellon University, priority 2013, dated 2017).

Tests used:
[1] = Stability at 50 or 60° C. (chymotrypsin-pQA); assay type: physicochemical; conditions: 0.1 M sodium phosphate buffer pH 8.0
Protocol: […] Aliquots (50 μL) were removed and kept at 0° C. before measuring residual activity. The residual activity was calculated as a ratio of initial rates of hydrolysis reaction at given incubation time over the initial activity for each specific sample.

[2] = Enzyme stability at 25° C. or 40° C., first order inactivation; assay type: physicochemical; conditions: 1 mg enzyme/mL, pH 8.0
Protocol: Native CT and CT conjugates (1 mg enzyme/mL) were dissolved in 0.1 M sodium phosphate buffer (pH 8.0) and incubated in a water bath at either 25° C. or 40° C. At various time points, aliquots were removed and diluted to 0.1 mg enzyme/mL using 0.1 M phosphate buffer (pH 8.0). Residual activity was calculated as the percentage of activity remaining relative to the activity at time zero. Substrate (Suc-AAPF-pNA) concentration was kept constant at 288 μM for each sample and time points.

NS-AAPF-pNA = target: T1, NS-AAPF-pNA (Bos taurus, UniProt P00766); test: CT and CT conjugate biocatalytic activity, 2.5 to 37.5° C.; assay type: biochemical
T1 construct: purchased Sigma Aldrich; host or cells: bovine pancreas
Protocol: N-succinyl-L-Ala-L-Ala-L-Pro-L-Phe-p-nitroanilide was used as a substrate for enzyme bioactivity assays. In a cuvette, 0.1 M sodium phosphate buffer (2820-2970 μL, pH 8.0), substrate (0-150 μL, 6 mg/mL in DMSO (0-500 μM)), and enzyme (30 μL, 0.1 mg enzyme/mL 0.1 M pH 8.0 sodium phosphate buffer (0.04 μM)) were mixed. The rate of the hydrolysis was determined by recording the increase in absorbance at 412 nm for the first 30 seconds after mixing. KM and kcat values were calculated using EnzFitter software when plotting substrate concentration versus initial hydrolysis velocity.
CT conjugate kinetics were examined at a variety of temperatures (2.5° C., 7° C., 16.5° C., 24.5° C., 33° C., and 37.5° C.) to determine the effect of polymer UCST and LCST phase transitions and molecular weight on enzyme kinetics (see FIGS. 11(a)-(c) and Table 16 below).

[3] = Stability study: irreversible inactivation at 40° C., pH 7-9, residual activity; assay type: physicochemical; conditions: for half-life t1/2: 40 μM enzyme
Protocol: Native CT and the prepared conjugates (1.5 to 2.0 mL of 40.0 μM) were incubated in 100 mM sodium phosphate buffer at different pH's at 40° C. Aliquots (20 μL) were removed and added into sodium phosphate buffer (180 μL, 100 mM, at 0° C.). The residual activity was calculated as a ratio of initial rates of hydrolysis reaction at given incubation time over the initial activity, which monitored spectrophotometrically as described above. Half-lives for enzyme longevity were estimated by non-linear curve fitting (equation for single exponential decay) using Enzfitter.
CT inactivation can occur through unfolding and/or autolysis. The polymer component of the PBPE conjugates may stabilize the enzyme by increasing the energy needed to unfold the protein and also by inhibiting autolysis directly. Since the autolysis reaction of proteases is favored when the enzyme concentration is high, (Yang, Z.; Domach, M.; Auger, R.; Yang, F. X.; Russell, A. J. Enzyme Microb. Technol. 1996, 18, 82-89) stability at relatively high enzyme concentration (40 μM) was investigated. At 40° C. the residual activity of the enzyme was measured as a function of pH and shown in FIG. 8, and the first order rate constant for deactivation and half-life were calculated (Table 5).

[4] = Stability in artificial gastric acid solution, 167 mM HCl, 37° C. (chymotrypsin-pQA); assay type: physicochemical; conditions: 167 mM HCl (pH 1)
Protocol: Native CT and conjugates (1.5 to 2.0 mL, 4.0 μM) were incubated in 100 mM sodium phosphate buffer (pH 7.0) at 50 or 60° C., and an artificial gastric acid solution (167 mM HCl aq. pH 1.5) at 37° C. Aliquots (50 μL) were removed and kept at 0° C. before measuring residual activity. The residual activity was calculated as a ratio of initial rates of hydrolysis reaction at given incubation time over the initial activity for each specific sample.

aprotinin (AP) = target: T2, aprotinin (AP) (Bos taurus, UniProt P00974); test: Inhibitor binding study with aprotinin; assay type: biochemical, Bovine; conditions: 25° C.; for Apparent Vmax / KM/Vmax: pH 8.0
T2 construct: purchased Sigma Aldrich; host or cells: Nicotiana (tobacco) for aprotinin; bovine pancreas for chymotrypsin
Protocol: Apparent KM and Vmax values were calculated using EnzFitter by Michelis-Menten curve fitting of substrate against initial velocity plots. (B) Secondary plots with calculated apparent KM and Vmax values were used to determine inhibition constants of aprotinin towards native chymotrypsin.
FIGS. 23A and B show (A) Substrate/initial velocity plots and (B) secondary plots to determine inhibitor constant for chymotrypsin-pQA200 with aprotinin in 0.1 M sodium phosphate buffer (pH 8) at 25° C. The procedure used was the same as described above for aprotinin and native chymotrypsin.
Enzyme inhibition was assayed by measuring the hydrolytic activities of samples which contained a fixed concentration of protease and varying amounts of inhibitor, including a blank with no inhibitor. Inhibitors and peptide substrate were simultaneously added to the native and conjugate solutions immediately before measuring initial rates. The initial rate of hydrolysis of the peptide substrate was monitored by recording the increase in absorption at 412 nm. To determine dissociation constant of the enzyme-inhibitor complexes (Ki), Vmax app and KM app were determined by non-linear curve fitting (equation for Michaelis-Menten parameters) of plots of initial rate versus substrate concentration using the Enzfitter software. The dissociation constants were calculated from secondary plot of KM app/Vmax app versus initial inhibitor concentration.

Q: For “α-Chymotrypsin (CT) from bovine pancreas (type II) [Native CT]”, which “time after which all activity was lost” value ([1]; 50° C.) is on record?
A: The value was 2 h.

Q: What about the “time in which all activity was lost” value ([1]; 60° C.) of the same substance?
A: The value was 30 min.

Q: What about the kinact ([2]; 25° C.) of the same substance?
A: The kinact was 0.13 ± 1.2 × 10^−2 days−1.

Q: What about the t1/2 ([2]; 25° C.) of the same substance?
A: Its t1/2 is 5.43 ± 0.51 days.

Q: What about the kinact ([2]; 40° C.) of the same substance?
A: The kinact was 6.61 ± 0.47 day⁻¹.

Q: What about the t1/2 ([2]; 40° C.) of the same substance?
A: The t1/2 was 0.10 ± 7.5 × 10^−3 days.

Q: What about the Km (NS-AAPF-pNA; 2.5° C., 0.1 M sodium phosphate pH 8.0) of the same substance?
A: Its Km is 30 ± 5.1 µM.

Q: And the kcat (NS-AAPF-pNA; 2.5° C., pH 8.0)?
A: Its kcat is 8.9 ± 0.4 s⁻¹.

Q: What about the kcat (NS-AAPF-pNA; 2.5° C., pH 8.0, listed as native chymotrypsin) of the same substance?
A: Its kcat is 8.9 ± 0.4 s⁻¹.

Q: What about the Km (NS-AAPF-pNA; 7° C., pH 8.0) of the same substance?
A: Its Km is 29 ± 6.9 µM.

Q: And the kcat (NS-AAPF-pNA; 7° C., pH 8.0)?
A: The kcat was 9.7 ± 0.5 s⁻¹.

Q: What about the kcat (NS-AAPF-pNA; 7° C., pH 8.0, listed as native chymotrypsin) of the same substance?
A: The kcat was 9.7 ± 0.5 s⁻¹.

Q: What about the Km (NS-AAPF-pNA; 16.5° C., pH 8.0) of the same substance?
A: The Km was 37 ± 8.6 µM.

Q: What about the kcat (NS-AAPF-pNA; 16.5° C., pH 8.0) of the same substance?
A: The kcat was 16 ± 0.9 s⁻¹.

Q: What about the kcat (NS-AAPF-pNA; 16.5° C., pH 8.0, listed as native chymotrypsin) of the same substance?
A: The kcat was 16 ± 0.9 s⁻¹.

Q: What about the Km (NS-AAPF-pNA; 24.5° C., pH 8.0) of the same substance?
A: Its Km is 51 ± 8.7 µM.

Q: And the kcat (NS-AAPF-pNA; 24.5° C., pH 8.0)?
A: Its kcat is 25 ± 1.3 s⁻¹.

Q: And the kcat (NS-AAPF-pNA; 24.5° C., pH 8.0, listed as native chymotrypsin)?
A: The kcat was 25 ± 1.3 s⁻¹.

Q: And the Km (NS-AAPF-pNA; 33° C., pH 8.0)?
A: The Km was 57 ± 5 µM.

Q: What about the kcat (NS-AAPF-pNA; 33° C., pH 8.0) of the same substance?
A: Its kcat is 36 ± 1.3 s⁻¹.

Q: What about the kcat (NS-AAPF-pNA; 33° C., pH 8.0, listed as native chymotrypsin) of the same substance?
A: The kcat was 36 ± 1.3 s⁻¹.

Q: And the Km (NS-AAPF-pNA; 37.5° C., pH 8.0)?
A: The Km was 59 ± 6.9 µM.

Q: And the kcat (NS-AAPF-pNA; 37.5° C., pH 8.0)?
A: The kcat was 47 ± 1.7 s⁻¹.

Q: What about the kcat (NS-AAPF-pNA; 37.5° C., pH 8.0, listed as native chymotrypsin) of the same substance?
A: Its kcat is 47 ± 1.7 s⁻¹.

Q: What about the “half-life t1/2” value ([3]; pH 7.0, 40° C.) of the same substance?
A: Its value is 7.15 ± 0.91 h.

Q: What about the “half-life t1/2” value ([3]; pH 7.0, 40° C., listed as native enzyme) of the same substance?
A: The value was 7.2 h.

Q: What about the initial activity retained ([3]; pH 7, 40° C., after 6 h) of the same substance?
A: The initial activity retained was 50%.

Q: What about the “half-life t1/2” value ([3]; pH 8.0, 40° C.) of the same substance?
A: Its value is 1.95 ± 0.25 h.

Q: And the “half-life t1/2” value ([3]; pH 9.0, 40° C.)?
A: The value was 1.53 ± 0.20 h.

Q: What about the biocatalytic activity lost ([3]; pH 9, 40° C., after 6 h) of the same substance?
A: The biocatalytic activity lost was 70-80%.

Q: And the “time after which all activity was lost” value [4]?
A: The value was 3 h.

Q: What about the “Apparent Vmax” value (aprotinin (AP); aprotinin [I]0 0 mM) of the same substance?
A: The value was 1.13 mM/s.

Q: And the KM/Vmax (aprotinin (AP); aprotinin [I]0 0 mM)?
A: The KM/Vmax was 76.3 s⁻¹.

Q: And the “Apparent Vmax” value (aprotinin (AP); aprotinin [I]0 0.098 mM)?
A: The value was 1.17 mM/s.

Q: And the KM/Vmax (aprotinin (AP); aprotinin [I]0 0.098 mM)?
A: Its KM/Vmax is 149.2 s⁻¹.

Q: What about the “Apparent Vmax” value (aprotinin (AP); aprotinin [I]0 0.196 mM) of the same substance?
A: Its value is 1.14 mM/s.

Q: What about the KM/Vmax (aprotinin (AP); aprotinin [I]0 0.196 mM) of the same substance?
A: Its KM/Vmax is 242.8 s⁻¹.

Q: What about the “Apparent Vmax” value (aprotinin (AP); aprotinin [I]0 0.294 mM) of the same substance?
A: Its value is 1.19 mM/s.

Q: What about the KM/Vmax (aprotinin (AP); aprotinin [I]0 0.294 mM) of the same substance?
A: The KM/Vmax was 314.3 s⁻¹.

Q: What about the “Apparent Vmax” value (aprotinin (AP); aprotinin [I]0 0.392 mM) of the same substance?
A: Its value is 1.04 mM/s.

Q: And the KM/Vmax (aprotinin (AP); aprotinin [I]0 0.392 mM)?
A: Its KM/Vmax is 431.6 s⁻¹.

Q: What about the “Apparent Vmax” value (aprotinin (AP); aprotinin [I]0 0.490 mM) of the same substance?
A: Its value is 1.13 mM/s.

Q: What about the KM/Vmax (aprotinin (AP); aprotinin [I]0 0.490 mM) of the same substance?
A: The KM/Vmax was 569.45 s⁻¹.

Q: And the Ki (aprotinin (AP); inhibitor aprotinin)?
A: Its Ki is 56.3 nM.
